Reference: US20030171565A1 (VANDERBILT UNIVERSITY, published 2003)

Target: T1, tyrosine phosphatase SHP-1 (human, UniProt P29350 1-595)
T1 construct: mature
Experiment: anti-PZR immunoprecipitation from pervanadate-treated cells, Western blot

T1 sequence (P29350 whole entry): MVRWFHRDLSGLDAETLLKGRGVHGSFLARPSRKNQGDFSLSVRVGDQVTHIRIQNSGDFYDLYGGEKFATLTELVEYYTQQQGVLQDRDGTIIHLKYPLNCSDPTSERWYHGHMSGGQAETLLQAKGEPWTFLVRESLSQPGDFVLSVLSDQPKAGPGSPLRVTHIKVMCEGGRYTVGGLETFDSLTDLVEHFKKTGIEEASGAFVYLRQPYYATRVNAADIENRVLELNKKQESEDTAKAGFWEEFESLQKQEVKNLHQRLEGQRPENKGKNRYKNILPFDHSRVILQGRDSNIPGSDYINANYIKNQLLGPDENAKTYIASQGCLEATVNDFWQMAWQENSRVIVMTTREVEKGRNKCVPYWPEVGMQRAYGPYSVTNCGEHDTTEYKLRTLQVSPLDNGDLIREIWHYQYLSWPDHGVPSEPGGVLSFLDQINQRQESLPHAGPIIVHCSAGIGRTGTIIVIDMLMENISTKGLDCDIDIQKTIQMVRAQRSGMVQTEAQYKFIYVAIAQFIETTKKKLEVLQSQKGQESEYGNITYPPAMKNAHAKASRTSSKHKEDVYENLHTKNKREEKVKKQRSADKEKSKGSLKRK

B1: protein zero related (PZR), tyrosine-phosphorylated (receptor)
chain: SALEVYTPKEIFVANGTQGKLTCKFKSTSTTGGLTSVSWSFQPEGADTTVSFFHYSQGQVYLGNYPPFKDRISWAGDLDKKDASINIENMQFIHNGTYICDVKNPPDIVVQPGHIRLYVVEKENLPVFPVWVVVGIVTAVVLGLTLLISMILAVLYRRKNSKRDYTGCSTSESLSPVKQAPRKSPSDTEGLVKSLPSGSHQGPVIYAQLDHSGGHHSDKINKSESVVYADIRKN
modifications: phosphotyrosine at 241 and 263 (cells treated with pervanadate, or cells expressing catalytically inactive SHP-2); N-glycosylated
notes: It was assayed in Triton X-100 cell extracts or as protein purified from 293 cells; also called hPZR; p43
binding result: no binding
